Measurements from paper PMC4686660, “MLLT1 YEATS domain mutations in clinically distinctive Favourable Histology Wilms tumours” (Nature Communications, 2015).

T1: wild-type MLLT1 YEATS domain polypeptide (residues 1-138 of human MLLT1) (human, UniProt Q03111 1-138)
T1 construct: MLLT1 (ENL), human, YEATS domain, residues 1-138; codon-optimized DNA in pET28 with a thrombin cleavage site between the 6His tag and the protein; also called ENL; YEATS1; source: E. coli BL21(pLysS), purified (Ni-NTA sepharose, size exclusion chromatography)
T1 sequence (looked up): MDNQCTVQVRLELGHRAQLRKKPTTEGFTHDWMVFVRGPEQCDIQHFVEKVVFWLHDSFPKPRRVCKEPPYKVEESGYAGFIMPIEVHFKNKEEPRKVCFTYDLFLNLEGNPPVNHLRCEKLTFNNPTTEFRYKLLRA

T2: MLLT1 YEATS domain polypeptide p.112_114PPV>L (human, UniProt Q03111 1-138, p.112_114PPV>L)
T2 construct: Somatic mutation found in tumours; source: E. coli BL21(pLysS), purified (Ni-NTA sepharose, size exclusion chromatography)
T2 sequence (looked up): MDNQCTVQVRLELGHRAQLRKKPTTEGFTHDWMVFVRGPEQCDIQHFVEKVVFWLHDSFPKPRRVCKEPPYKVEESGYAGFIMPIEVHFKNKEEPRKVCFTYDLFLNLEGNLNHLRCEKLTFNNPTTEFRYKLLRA


What was measured:
Experiment in all cases: ITC; YEATS domain in the measurement cell (90-130 uM), histone peptides in the injection syringe (1.2 mM); 50 mM Hepes pH 7.4, 300 mM NaCl, 5 mM beta-mercaptoethanol, 25 °C; MicroCal ITC200 and TA Nano microcalorimeters; triplicate
[1] = molecular target: MLLT1 YEATS domain polypeptide p.111_113NPP>K (human) (UniProt Q03111)
[2] = molecular target: wild-type MLLT1 YEATS domain polypeptide (residues 1-138 of human MLLT1) (human) (UniProt Q03111)
[3] = molecular target: T1, wild-type MLLT1 YEATS domain …; conditions: both partners purified
[4] = molecular target: T2, MLLT1 YEATS domain polypeptide …; conditions: both partners purified

Molecule | Kd [1] [µM] | Kd [2] [µM] | Kd [3] [µM] | Kd [4] [µM]
H3K27ac histone H3 tail peptide | 330 | 140 |  | 
ARTKQTARKST (acetyl-lysine at K9) [H3K9ac histone H3 tail peptide] |  |  | 60 | 107
